Ends that are not written are not given here.
Target: C1q CLR (collagen-like region) (UniProt P02745 31-109; P02747 31-112)
Test: SPR

B1: Acetylated PA (AcPA) (peptide)
peptide: IALILEPICCQERAA
modifications: cysteine pairing not given here; also: acetylated, position not given here
  koff: 0.000219 s⁻¹
